Measurements taken from patent US20230181756A1 (Novartis, published 2023).

Key:
cynomolgus monkey CCR7 [1] = target: T1, cynomolgus monkey CCR7 (cynomolgus monkey, UniProt P32248 25-378 (human entry)); assay: FACS titration, NIH3T3 cells expressing cyno CCR7
T1 construct: also called Cyno CCR7; NIH3T3.cyno CCR7
T1 sequence: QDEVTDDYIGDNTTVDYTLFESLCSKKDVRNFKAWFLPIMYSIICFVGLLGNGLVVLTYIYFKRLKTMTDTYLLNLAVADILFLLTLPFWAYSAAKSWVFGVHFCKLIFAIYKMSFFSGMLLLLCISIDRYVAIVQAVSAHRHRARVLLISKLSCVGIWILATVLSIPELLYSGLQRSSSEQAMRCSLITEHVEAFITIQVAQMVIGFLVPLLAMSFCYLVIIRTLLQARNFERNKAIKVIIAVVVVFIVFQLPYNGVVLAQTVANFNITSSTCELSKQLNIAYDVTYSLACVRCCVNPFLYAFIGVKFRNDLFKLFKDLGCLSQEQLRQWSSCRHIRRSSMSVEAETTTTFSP

CCR9 = target: T2, CCR9 (UniProt P51686 1-369, limits assumed); assay: FACS on PF382 cells (CCR7-/CCR9+/CCR6+)
T2 construct: whole, on cells; also called PF382 cells (CCR7-/CCR9+/CCR6+)
T2 sequence (looked up): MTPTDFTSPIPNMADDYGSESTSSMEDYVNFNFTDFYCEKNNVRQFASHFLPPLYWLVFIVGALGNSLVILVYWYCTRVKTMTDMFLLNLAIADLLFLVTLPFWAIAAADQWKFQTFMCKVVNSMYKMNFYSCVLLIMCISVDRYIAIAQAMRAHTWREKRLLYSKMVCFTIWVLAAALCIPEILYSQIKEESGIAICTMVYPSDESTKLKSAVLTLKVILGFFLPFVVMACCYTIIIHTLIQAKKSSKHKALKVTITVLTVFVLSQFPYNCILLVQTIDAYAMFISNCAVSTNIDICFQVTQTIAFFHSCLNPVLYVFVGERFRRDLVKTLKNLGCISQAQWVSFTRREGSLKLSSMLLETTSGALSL

CCR6 = target: T3, CCR6 (UniProt P51684 1-374, limits assumed); assay: FACS on PF382 cells (CCR7-/CCR9+/CCR6+)
T3 construct: whole, on cells; also called PF382 cells (CCR7-/CCR9+/CCR6+)
T3 sequence (looked up): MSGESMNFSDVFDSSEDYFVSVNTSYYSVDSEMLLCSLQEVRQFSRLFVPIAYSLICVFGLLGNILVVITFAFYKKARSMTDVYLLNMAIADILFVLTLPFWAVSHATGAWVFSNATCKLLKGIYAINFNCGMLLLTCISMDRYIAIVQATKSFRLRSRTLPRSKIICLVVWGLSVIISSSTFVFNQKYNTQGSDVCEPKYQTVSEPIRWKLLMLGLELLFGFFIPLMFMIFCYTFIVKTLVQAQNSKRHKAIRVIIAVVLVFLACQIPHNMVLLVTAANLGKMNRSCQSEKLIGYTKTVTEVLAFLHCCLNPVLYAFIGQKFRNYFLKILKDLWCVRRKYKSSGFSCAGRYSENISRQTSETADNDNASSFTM

CCR8 = target: T4, CCR8 (UniProt P51685 1-355, limits assumed); assay: FACS on CHO-CCR8 cells
T4 construct: whole, on cells; also called CHO-CCR8

human CCR7 [2] = target: T5, human CCR7 (human, UniProt P32248 25-378); assay: FACS titration, human CD4+ T cells from PBMC
T5 construct: The assay field tells which; also called hCCR7; NIH3T3.hCCR7
T5 sequence: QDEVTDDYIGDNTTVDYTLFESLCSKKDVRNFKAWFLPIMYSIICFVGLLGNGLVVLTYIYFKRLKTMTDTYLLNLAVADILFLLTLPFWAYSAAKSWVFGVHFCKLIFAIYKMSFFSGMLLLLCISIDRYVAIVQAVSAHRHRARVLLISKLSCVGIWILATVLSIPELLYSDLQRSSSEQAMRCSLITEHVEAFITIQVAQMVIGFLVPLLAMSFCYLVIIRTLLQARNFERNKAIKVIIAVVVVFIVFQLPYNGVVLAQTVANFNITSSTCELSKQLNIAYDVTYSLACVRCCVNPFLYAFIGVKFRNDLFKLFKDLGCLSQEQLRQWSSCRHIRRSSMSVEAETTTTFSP

CXCR4 = target: T6, CXCR4 (UniProt P61073 1-352, limits assumed); assay: FACS on HEK293-CXCR4 cells
T6 construct: whole, on cells; also called HEK293-CXCR4

human CCR7 [3] = target: T5, human CCR7; assay: ELISA on CCR7-expressing VLPs, pH 5.8 buffer
human CCR7 [4] = target: T5, human CCR7; assay: ELISA on CCR7-expressing VLPs, pH 7.4 buffer
cynomolgus monkey CCR7 [5] = target: T1, cynomolgus monkey CCR7; assay: FACS titration, cynomolgus CD4+ T cells
human CCR7 [6] = target: T5, human CCR7; assay: FACS titration, DEL cells (CCR7 receptor levels >=100,000)
human CCR7 [7] = target: T5, human CCR7; assay: FACS titration, NIH3T3 cells expressing human CCR7

T4 sequence (P51685 whole entry): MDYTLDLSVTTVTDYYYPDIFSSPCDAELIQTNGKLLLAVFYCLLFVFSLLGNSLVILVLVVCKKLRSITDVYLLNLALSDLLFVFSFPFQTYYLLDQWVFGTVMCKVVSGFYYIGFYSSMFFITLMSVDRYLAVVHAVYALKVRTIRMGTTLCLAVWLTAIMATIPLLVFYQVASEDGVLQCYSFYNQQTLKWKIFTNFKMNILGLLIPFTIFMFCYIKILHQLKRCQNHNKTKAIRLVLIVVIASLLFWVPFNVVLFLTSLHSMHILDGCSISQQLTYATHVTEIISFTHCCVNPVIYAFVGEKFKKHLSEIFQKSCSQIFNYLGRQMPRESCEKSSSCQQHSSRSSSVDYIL
T6 sequence (P61073 whole entry): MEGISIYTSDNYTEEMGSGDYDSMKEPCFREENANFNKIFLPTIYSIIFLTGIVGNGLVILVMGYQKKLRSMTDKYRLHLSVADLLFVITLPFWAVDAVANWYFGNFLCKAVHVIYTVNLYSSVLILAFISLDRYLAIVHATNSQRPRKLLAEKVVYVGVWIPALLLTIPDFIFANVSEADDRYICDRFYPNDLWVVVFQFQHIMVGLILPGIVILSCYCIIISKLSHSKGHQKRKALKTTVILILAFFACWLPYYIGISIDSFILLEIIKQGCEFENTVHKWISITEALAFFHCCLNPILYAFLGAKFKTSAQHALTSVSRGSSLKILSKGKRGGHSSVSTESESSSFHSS

EC50 (cynomolgus monkey CCR7 [1]): 0.9 nM
binding result (CCR9): no binding (tested: 5 ug/ml)
binding result (CCR6): no binding (tested: 5 ug/ml)
binding result (CCR8): no binding (tested: 5 ug/ml)
EC50 (human CCR7 [2]): 30 to 34 nM
binding result (CXCR4): no binding (tested: 5 ug/ml)
Kd (human CCR7 [3]): 0.521 nM
Kd (human CCR7 [4]): 0.141 nM
EC50 (cynomolgus monkey CCR7 [5]): 12 nM
EC50 (human CCR7 [6]): 5.24 nM
EC50 (human CCR7 [7]): 1 nM
B1: 121G12 humanized CysMab (Fc Wild Type) (antibody, V domains shown)
VH: EVQLVESGGGLVKPGGSLRLSCAASGFTFSTYAMSWVRQAPGKGLEWVATISDAGSYSYYPDNVKGRFTISRDNAKNSLYLQMNSLRAEDTAVYYCARRGSRYEEYYVMDYWGQGTTVTVSS
VL: EIVLTQSPATLSVSPGERVTLSCRASQSISNNLHWYQQKPGQAPRLLIKYASQSISGIPARFSGSGSGTDFTLTISSVEPEDFGVYFCQQSSSWLTFGQGTKLEIK
notes: Human IgG1 kappa with CysMab cysteines (E152C, S375C); also called Humanized CysMab antibody 121G12; 121G12.CysMab.DAR4 unconjugated (assigned)
